From the supplement of paper PMC9233669
This sample holds only a part of the variants without activity.

Tests used:
[1] = test system: biotinyl-Ile-oxazolone; test: self-aminoacylation, catalytic enhancement (BIO) (fold over background); higher = more active; k-Seq, kA / k0A0; sequences stand for … in GGGAAUGGAUCCACAUCUACGAAUUC…UUCACUGCAGACUUGACGAAGCUG
Summary of the method: (§1)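 Catalytic enhancement equals the median kA over the uncatalyzed rate, the latter read from the low-activity peak of a bimodal Gaussian fit. Values of kA came from fitting each sequence's fraction reacted to a pseudo-first-order model, with 1000 bootstraps. Reacted RNA was captured with streptavidin and quantified by triplicate qPCR and Illumina sequencing after 90 minutes at room temperature with 2–1250 μM biotinyl-aminoacyl-oxazolone and 0.43 μM mutagenized RNA pools bearing a 21-nt variable region.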

[2] = test system: biotinyl-Trp-oxazolone; test: self-aminoacylation, catalytic enhancement (BWO) (fold over background); higher = more active; k-Seq, kA / k0A0; sequences stand for … in GGGAAUGGAUCCACAUCUACGAAUUC…UUCACUGCAGACUUGACGAAGCUG
Summary of the method: as §1

[3] = test system: biotinyl-Met-oxazolone; test: self-aminoacylation, catalytic enhancement (BMO) (fold over background); higher = more active; k-Seq, kA / k0A0; sequences stand for … in GGGAAUGGAUCCACAUCUACGAAUUC…UUCACUGCAGACUUGACGAAGCUG
Summary of the method: as §1

[4] = test system: biotinyl-Phe-oxazolone; test: self-aminoacylation, catalytic enhancement (BFO) (fold over background); higher = more active; k-Seq, kA / k0A0; sequences stand for … in GGGAAUGGAUCCACAUCUACGAAUUC…UUCACUGCAGACUUGACGAAGCUG
Summary of the method: as §1

[5] = test system: biotinyl-Leu-oxazolone; test: self-aminoacylation, catalytic enhancement (BLO) (fold over background); higher = more active; k-Seq, kA / k0A0; sequences stand for … in GGGAAUGGAUCCACAUCUACGAAUUC…UUCACUGCAGACUUGACGAAGCUG
Summary of the method: as §1

[6] = test system: biotinyl-Val-oxazolone; test: self-aminoacylation, catalytic enhancement (BVO) (fold over background); higher = more active; k-Seq, kA / k0A0; sequences stand for … in GGGAAUGGAUCCACAUCUACGAAUUC…UUCACUGCAGACUUGACGAAGCUG
Summary of the method: as §1

| Sequence | self-aminoacylation [1] | self-aminoacylation [2] | self-aminoacylation [3] | self-aminoacylation [4] | self-aminoacylation [5] | self-aminoacylation [6] |
| --- | --- | --- | --- | --- | --- | --- |
| AUUACUCUGGUCAUCGAAUGA [Fam2.1 aminoacylation ribozyme variant] | 1.19 | 0.832 | 1.45 | 0.918 | 1.3 | 1.09 |
| CCAAACUUUAAGCAAUCGGUC [Fam1B.1 aminoacylation ribozyme variant] | 1.11 | 0.664 | 0.869 | 0.824 | 0.846 | 0.993 |
| AAUACCCUGGUCAACGAGUGA [Fam2.1 aminoacylation ribozyme variant] | 2.88 | 5.89 | 4.19 | 11.1 | 4.32 | 2.53 |
| AAGUGUUCUAAUAGUCGCAAG [Fam3.1 aminoacylation ribozyme variant] | 1.6 | 1.54 | 1.7 | 2.39 | 1.64 | 1.32 |
| GUUCACCUAGGUCCUCGGGUG [Fam2.2 aminoacylation ribozyme variant] | 3.49 | 5.27 | 4.16 | 25.5 | 4.67 | 4.16 |
| AUUCAGCUAGGUCAUCGGGUA [Fam2.2 aminoacylation ribozyme variant] | 3.18 | 2.76 | 3.6 | 29.7 | 3.67 | 3.3 |
| CCACAAUUCAAGAAAUCGGUC [Fam1B.1 aminoacylation ribozyme variant] | 0.949 | 1.41 | 0.78 | 1.38 | 0.866 | 0.906 |
| CUAGUUCACACAAUCGGUCUG [Fam1A.1 aminoacylation ribozyme variant] | 1.28 | 1.19 | 1.13 | 2.8 | 1.36 | 1.14 |
| CCACACUUCAAGGACUCGGUC [Fam1B.1 aminoacylation ribozyme variant] | 1.02 | 1.13 | 1.03 | 1.05 | 1.23 | 1.24 |
| AUUACCCUGAUUAUCGAGUGA [Fam2.1 aminoacylation ribozyme variant] | 7.51 | 22 | 17.9 | 117 | 17.4 | 7.28 |
| GGACACUUCAAGCAAUCGGUC [Fam1B.1 aminoacylation ribozyme variant] | 2.38 | 22.5 | 2.13 | 26.7 | 2.4 | 2.29 |
| AUUCACCUAGGUCUUCGGGUU [Fam2.2 aminoacylation ribozyme variant] | 2.82 | 2.94 | 3.09 | 13.8 | 3.66 | 2.98 |
| AUUCGCCUAGGUCACCGGGUG [Fam2.2 aminoacylation ribozyme variant] | 4.4 | 5.18 | 5.69 | 49 | 8.04 | 4.27 |
| AGUCACCUAGGUCAUGGGGUG [Fam2.2 aminoacylation ribozyme variant] | 3.57 | 5.76 | 5.58 | 29.2 | 5.97 | 4.11 |
| AAGUCUGCGAAUAGUCGCAAG [Fam3.1 aminoacylation ribozyme variant] | 1 | 1.2 | 1.76 | 8.07 | 1.38 | 0.979 |
| AUUCACCUCGGUAAUCGGGUG [Fam2.2 aminoacylation ribozyme variant] | 4.01 | 4.41 | 4.55 | 31.8 | 6.13 | 3.32 |
| CUUACCCUGGACAUCGAGUGA [Fam2.1 aminoacylation ribozyme variant] | 2.78 | 5.06 | 5.08 | 11.5 | 5.46 | 3.18 |
| ACUACCCGGGUCAUCGAGUGA [Fam2.1 aminoacylation ribozyme variant] | 4.64 | 8.27 | 7.84 | 43.7 | 8.28 | 4.17 |
| AACUUCGCUAAUAGUCGCAAG [Fam3.1 aminoacylation ribozyme variant] | 2.98 | 3.06 | 3.5 | 14.5 | 3.44 | 3.03 |
| CUACUUCAAACAAUGGGCCUG [Fam1A.1 aminoacylation ribozyme variant] | 1.4 | 0.896 | 1.25 | 1.67 | 1.19 | 1.16 |
| CUACUUAAAACACUCGGUCUG [Fam1A.1 aminoacylation ribozyme variant] | 0.992 | 0.762 | 0.758 | 0.731 | 0.882 | 0.792 |
| AGGUUUGCUACUAGUCGCAAG [Fam3.1 aminoacylation ribozyme variant] | 1.35 | 1.77 | 1.55 | 2.49 | 1.84 | 1.69 |
| AAUAACCUAGGUCAUCGGGUG [Fam2.2 aminoacylation ribozyme variant] | 3.18 | 5.23 | 4.25 | 22.8 | 4.57 | 3.3 |
| CUUCACCGAGGUCAUCGGGUG [Fam2.2 aminoacylation ribozyme variant] | 3.01 | 5.44 | 6.2 | 59.7 | 7.45 | 4.68 |
| AAUCACCUAGGCCAUCGGGUG [Fam2.2 aminoacylation ribozyme variant] | 2.88 | 5.04 | 3 | 25.5 | 3.01 | 3.86 |
| AUUACGCUGGUCAUUGAGUGA [Fam2.1 aminoacylation ribozyme variant] | 3.29 | 6.92 | 5.32 | 21.2 | 5.87 | 3 |
